According to patent publication EP4545563A1, “ANTIBODIES TARGETING ITGA2 AND ANTIBODY-DRUG […]” (Foreseen Technology (Beijing) Co., Ltd., priority 2022, dated 2024):

Biological target: ITGA2 protein on the surface of human tumor cells (HuCCT1, A431) (human) (UniProt P17301)
Test: cell-based or functional assay

Sequence of ITGA2 protein on the surface of human tumor cells (HuCCT1, A431) (human) (P17301 30-1181): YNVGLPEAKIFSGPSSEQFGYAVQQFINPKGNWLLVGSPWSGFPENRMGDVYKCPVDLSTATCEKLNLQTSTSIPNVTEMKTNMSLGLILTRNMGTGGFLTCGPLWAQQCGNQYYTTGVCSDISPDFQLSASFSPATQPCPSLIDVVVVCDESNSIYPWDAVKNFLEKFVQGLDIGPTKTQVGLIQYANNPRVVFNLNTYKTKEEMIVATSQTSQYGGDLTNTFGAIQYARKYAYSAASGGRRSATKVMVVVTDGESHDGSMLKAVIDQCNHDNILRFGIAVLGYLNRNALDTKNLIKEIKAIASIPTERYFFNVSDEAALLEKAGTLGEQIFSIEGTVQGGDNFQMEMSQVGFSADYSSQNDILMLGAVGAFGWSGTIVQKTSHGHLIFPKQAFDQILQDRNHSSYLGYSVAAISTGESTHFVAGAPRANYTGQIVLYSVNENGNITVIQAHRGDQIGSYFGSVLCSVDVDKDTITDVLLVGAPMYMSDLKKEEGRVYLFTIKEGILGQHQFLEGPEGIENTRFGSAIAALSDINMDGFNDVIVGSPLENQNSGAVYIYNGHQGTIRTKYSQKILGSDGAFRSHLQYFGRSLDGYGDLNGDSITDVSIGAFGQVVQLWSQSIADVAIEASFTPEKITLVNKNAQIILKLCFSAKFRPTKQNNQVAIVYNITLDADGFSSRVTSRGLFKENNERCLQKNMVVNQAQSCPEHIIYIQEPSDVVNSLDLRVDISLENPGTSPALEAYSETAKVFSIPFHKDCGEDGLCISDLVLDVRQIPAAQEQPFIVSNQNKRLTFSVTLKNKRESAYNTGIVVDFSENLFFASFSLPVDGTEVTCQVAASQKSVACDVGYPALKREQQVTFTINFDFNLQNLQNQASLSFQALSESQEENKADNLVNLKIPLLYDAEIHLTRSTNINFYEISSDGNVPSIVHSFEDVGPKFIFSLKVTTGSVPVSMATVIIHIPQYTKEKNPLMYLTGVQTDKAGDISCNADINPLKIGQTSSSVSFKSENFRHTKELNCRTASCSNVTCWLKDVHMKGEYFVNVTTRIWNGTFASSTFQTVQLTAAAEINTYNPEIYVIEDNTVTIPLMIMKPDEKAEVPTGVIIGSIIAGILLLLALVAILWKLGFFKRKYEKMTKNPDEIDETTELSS

Substance: Vatelizumab-ve-MMAE (antibody)
- A431 cell killing IC50: 80 pM
- HuCC-T1 cell killing IC50: 890 pM
